Source: US20230031980A1 (SHANGHAI NINTH PEOPLE S HOSPITAL SHANGHAI JIAO TONG …, published 2023)

B3: SAGE1 (Sarcoma antigen 1), full-length protein in cells (other)
chain: MQASPLQTSQPTPPEELHAAAYVFTNDGQQMRSDEVNLVATGHQSKKKHSRKSKRHSSSKRRKSMSSWLDKQEDAAVTHSICEERINNGQPVADNVLSTAPPWPDATIAHNIREERMENGQSRTDKVLSTAPPQLVHMAAAGIPSMSTRDLHSTVTHNIREERMENGQPQPDNVLSTGPTGLINMAATPIPAMSARDLYATVTHNVCEQKMENVQPAPDNVLLTLRPRRINMTDTGISPMSTRDPYATITYNVPEEKMEKGQPQPDNILSTASTGLINVAGAGTPAISTNGLYSTVPHNVCEEKMENDQPQPNNVLSTVQPVIIYLTATGIPGMNTRDQYATITHNVCEERVVNNQPLPSNALSTVLPGLAYLATADMPAMSTRDQHATIIHNLREEKKDNSQPTPDNVLSAVTPELINLAGAGIPPMSTRDQYATVNHHVHEARMENGQRKQDNVLSNVLSGLINMAGASIPAMSSRDLYATITHSVREEKMESGKPQTDKVISNDAPQLGHMAAGGIPSMSTKDLYATVTQNVHEERMENNQPQPSYDLSTVLPGLTYLTVAGIPAMSTRDQYATVTHNVHEEKIKNGQAASDNVFSTVPPAFINMAATGVSSMSTRDQYAAVTHNIREEKINNSQPAPGNILSTAPPWLRHMAAAGISSTITRDLYVTATHSVHEEKMTNGQQAPDNSLSTVPPGCINLSGAGISCRSTRDLYATVIHDIQEEEMENDQTPPDGFLSNSDSPELINMTGHCMPPNALDSFSHDFTSLSKDELLYKPDSNEFAVGTKNYSVSAGDPPVTVMSLVETVPNTPQISPAMAKKINDDIKYQLMKEVRRFGQNYERIFILLEEVQGSMKVKRQFVEFTIKEAARFKKVVLIQQLEKALKEIDSHCHLRKVKHMRKR
notes: Endogenous protein in HuTu 80, K562, U2OS and KYSE30 cells (IP-MS); also called endogenous SAGE1; ectopically expressed SAGE1
B4: INTS3CTD (C-terminal domain of INTS3, residues 572-978) (other)
chain: DQLDESLRDKVLQLQKGSDTEAQCEVMQEIVDQVLEEDFDSEQLSVLASCLQELFKAHFRGEVLPEEITEESLEESVGKPLYLIFRNLCQMQEDNSSFSLLLDLLSELYQKQPKIGYHLLYYLRASKAAAGKMNLYESFAQATQLGDLHTCLMMDMKACQEDDVRLLCHLTPSIYTEFPDETLRSGELLNMIVAVIDSAQLQELVCHVMMGNLVMFRKDSVLNILIQSLDWETFEQYCAWQLFLAHNIPLETIIPILQHLKYKEHPEALSCLLLQLRREKPSEEMVKMVLSRPCHPDDQFTTSILRHWCMKHDELLAEHIKSLLIKNNSLPRKRQSLRSSSSKLAQLTLEQILEHLDNLRLNLTNTKQNFFSQTPILQALQHVQASCDEAHKMKFSDLFSLAEEYED
notes: also called INTS3CTD dimer

What was measured:
[1] = target: B4; assay: ITC
Experimental: The equilibrium dissociation constant of the SAGE1I3BD-INTS3CTD interaction was determined using a MicroCal iTC200 calorimeter (Malvern). The binding enthalpy was measured at 16° C. in 25 mM Tris-HCl pH 8.0, 150 mM NaCl and 5 mM MgCl2. Two independent experiments were performed. ITC data were subsequently analyzed and fitted using Origin 7 software (OriginLab).
All statistical tests of experimental results were performed using the GraphPad Prism 7 unless noted. The statistical significance was calculated via unpaired two-tailed Student's t test. The dissociation constants (Kd) in ITC experiments were calculated using the Origin 7 software as mean±standard error from two independent experiments with a single site-specific binding model. The statistical analysis of in vivo experiments data was performed using nonparametric Mann-Whitney test. Results were represented as mean±standard deviation unless noted and p<0.05 was considered statistically significant.

His-INTS3-Strep = target: T1, His-INTS3-Strep (human, UniProt Q68E01 2-1043); assay: co-IP in transfected HEK-293T cells (FIG. 6C)
T1 construct: also called INTS3 (co-IP construct)
T1 sequence (Q68E01 2-1043): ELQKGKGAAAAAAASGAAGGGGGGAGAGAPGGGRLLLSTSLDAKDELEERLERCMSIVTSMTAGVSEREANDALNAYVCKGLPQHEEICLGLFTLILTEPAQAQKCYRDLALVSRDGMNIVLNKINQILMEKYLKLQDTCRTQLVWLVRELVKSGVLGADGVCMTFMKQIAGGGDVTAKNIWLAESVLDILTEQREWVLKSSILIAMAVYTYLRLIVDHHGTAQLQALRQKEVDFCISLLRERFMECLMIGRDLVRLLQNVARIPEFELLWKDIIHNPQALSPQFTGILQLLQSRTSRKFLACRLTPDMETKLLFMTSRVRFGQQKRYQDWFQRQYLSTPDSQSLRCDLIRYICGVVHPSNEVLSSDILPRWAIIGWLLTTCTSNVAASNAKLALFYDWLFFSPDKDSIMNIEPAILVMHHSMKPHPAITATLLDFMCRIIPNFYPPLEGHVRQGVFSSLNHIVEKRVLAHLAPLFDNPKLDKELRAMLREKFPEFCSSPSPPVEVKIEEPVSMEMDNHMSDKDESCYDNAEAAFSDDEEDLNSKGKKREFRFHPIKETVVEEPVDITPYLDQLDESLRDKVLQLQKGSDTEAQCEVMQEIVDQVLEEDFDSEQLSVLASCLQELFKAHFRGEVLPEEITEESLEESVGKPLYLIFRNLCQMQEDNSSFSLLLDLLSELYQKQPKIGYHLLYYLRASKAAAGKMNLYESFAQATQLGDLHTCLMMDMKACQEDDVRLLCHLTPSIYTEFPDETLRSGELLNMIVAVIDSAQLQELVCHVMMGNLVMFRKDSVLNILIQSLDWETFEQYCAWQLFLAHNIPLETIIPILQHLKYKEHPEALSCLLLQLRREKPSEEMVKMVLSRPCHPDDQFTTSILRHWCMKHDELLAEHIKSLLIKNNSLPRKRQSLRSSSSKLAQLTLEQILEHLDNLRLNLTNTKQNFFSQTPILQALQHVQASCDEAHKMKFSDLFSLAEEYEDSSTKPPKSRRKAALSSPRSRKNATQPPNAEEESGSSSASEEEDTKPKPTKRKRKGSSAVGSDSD
Experimental: After 48 hours, cells were lysed in IP buffer containing 50 mM Tris-HCl pH 7.5, 150 mM NaCl, 0.1% Triton-X100, 1 mM EDTA and 1×Roche protease inhibitor. The supernatants were incubated overnight with mouse anti-His monoclonal antibody (Proteintech #66005-1-Ig), or rabbit anti-FLAG polyclonal antibody (Proteintech #20543-1-AP).
Then, protein A/G agarose beads (Millipore, #[…]02) were added and rotated for 2 more hours. The immunoprecipitated complexes were subjected to SDS-PAGE, followed by Western blot and/or MS analyses.

[2] = target: INTS3 (integrator complex subunit 3), endogenous full-length protein (human, UniProt Q68E01 2-1043); assay: IP-MS with anti-INTS3 antibody in SAGE1-overexpressing 293T cells
Sequence of INTS3 (integrator complex subunit 3), endogenous full-length protein (Q68E01 2-1043 limits assumed, one chain of several): as the sequence (Q68E01 2-1043) above
Experimental: Given that SAGE1I3BD highly resembles INTS6I3BD, it is likely that they interact with INTS3CTD in a mutually exclusive manner. To test this idea, we mixed purified INTS3CTD-INTS6I3BD complex with GST-tagged SAGE1I3BD and conducted a GST-pull-down analysis.
For IP, 1×10^7 cells were lysed in lysis buffer (20 mM Tris-HCl, 150 mM NaCl, 10% Glycerol, 0.5% TritonX-100, 1 mM EDTA, 1 mM EGTA, pH7.4) supplemented with protease inhibitor cocktail (Sigma-Aldrich, #B14001), incubated in 4° C. for 10 min and sonicated by Bioruptor Plus (Diagenode) (5-10% amplitude/power, ON 5 sec-OFF 5 sec) for 1 min. After centrifugation (14,000 rpm, 15 min, 4° C., 1 mg of supernatants were incubated with 5 μg of rabbit anti-SAGE1 polyclonal antibody (Novus Biologicals, #NBP1-84355, or Abcam, #ab233388) and rabbit anti-
INTS3 polyclonal antibody (Novus Biologicals, #NBP1-19091) for 16 hours respectively. Next day, 20 μL of Protein G beads (Millipore, #LSKMAGG02) were added into each tube and incubated for 3 more hours. Then beads were harvested and washed for three times with lysis buffer and eluted by 0.2 M Glycine (pH 2.2).

[3] = target: T2, CBP (CRBP-binding protein) (UniProt Q92793 2-2442, limits assumed); assay: IP of the endogenous SAGE1 complex with anti-SAGE1 antibody (HuTu 80 and other SAGE1-expressing cancer cell lines), MS
T2 construct: also called CREBBP
T2 sequence (Q92793 2-2442 limits assumed): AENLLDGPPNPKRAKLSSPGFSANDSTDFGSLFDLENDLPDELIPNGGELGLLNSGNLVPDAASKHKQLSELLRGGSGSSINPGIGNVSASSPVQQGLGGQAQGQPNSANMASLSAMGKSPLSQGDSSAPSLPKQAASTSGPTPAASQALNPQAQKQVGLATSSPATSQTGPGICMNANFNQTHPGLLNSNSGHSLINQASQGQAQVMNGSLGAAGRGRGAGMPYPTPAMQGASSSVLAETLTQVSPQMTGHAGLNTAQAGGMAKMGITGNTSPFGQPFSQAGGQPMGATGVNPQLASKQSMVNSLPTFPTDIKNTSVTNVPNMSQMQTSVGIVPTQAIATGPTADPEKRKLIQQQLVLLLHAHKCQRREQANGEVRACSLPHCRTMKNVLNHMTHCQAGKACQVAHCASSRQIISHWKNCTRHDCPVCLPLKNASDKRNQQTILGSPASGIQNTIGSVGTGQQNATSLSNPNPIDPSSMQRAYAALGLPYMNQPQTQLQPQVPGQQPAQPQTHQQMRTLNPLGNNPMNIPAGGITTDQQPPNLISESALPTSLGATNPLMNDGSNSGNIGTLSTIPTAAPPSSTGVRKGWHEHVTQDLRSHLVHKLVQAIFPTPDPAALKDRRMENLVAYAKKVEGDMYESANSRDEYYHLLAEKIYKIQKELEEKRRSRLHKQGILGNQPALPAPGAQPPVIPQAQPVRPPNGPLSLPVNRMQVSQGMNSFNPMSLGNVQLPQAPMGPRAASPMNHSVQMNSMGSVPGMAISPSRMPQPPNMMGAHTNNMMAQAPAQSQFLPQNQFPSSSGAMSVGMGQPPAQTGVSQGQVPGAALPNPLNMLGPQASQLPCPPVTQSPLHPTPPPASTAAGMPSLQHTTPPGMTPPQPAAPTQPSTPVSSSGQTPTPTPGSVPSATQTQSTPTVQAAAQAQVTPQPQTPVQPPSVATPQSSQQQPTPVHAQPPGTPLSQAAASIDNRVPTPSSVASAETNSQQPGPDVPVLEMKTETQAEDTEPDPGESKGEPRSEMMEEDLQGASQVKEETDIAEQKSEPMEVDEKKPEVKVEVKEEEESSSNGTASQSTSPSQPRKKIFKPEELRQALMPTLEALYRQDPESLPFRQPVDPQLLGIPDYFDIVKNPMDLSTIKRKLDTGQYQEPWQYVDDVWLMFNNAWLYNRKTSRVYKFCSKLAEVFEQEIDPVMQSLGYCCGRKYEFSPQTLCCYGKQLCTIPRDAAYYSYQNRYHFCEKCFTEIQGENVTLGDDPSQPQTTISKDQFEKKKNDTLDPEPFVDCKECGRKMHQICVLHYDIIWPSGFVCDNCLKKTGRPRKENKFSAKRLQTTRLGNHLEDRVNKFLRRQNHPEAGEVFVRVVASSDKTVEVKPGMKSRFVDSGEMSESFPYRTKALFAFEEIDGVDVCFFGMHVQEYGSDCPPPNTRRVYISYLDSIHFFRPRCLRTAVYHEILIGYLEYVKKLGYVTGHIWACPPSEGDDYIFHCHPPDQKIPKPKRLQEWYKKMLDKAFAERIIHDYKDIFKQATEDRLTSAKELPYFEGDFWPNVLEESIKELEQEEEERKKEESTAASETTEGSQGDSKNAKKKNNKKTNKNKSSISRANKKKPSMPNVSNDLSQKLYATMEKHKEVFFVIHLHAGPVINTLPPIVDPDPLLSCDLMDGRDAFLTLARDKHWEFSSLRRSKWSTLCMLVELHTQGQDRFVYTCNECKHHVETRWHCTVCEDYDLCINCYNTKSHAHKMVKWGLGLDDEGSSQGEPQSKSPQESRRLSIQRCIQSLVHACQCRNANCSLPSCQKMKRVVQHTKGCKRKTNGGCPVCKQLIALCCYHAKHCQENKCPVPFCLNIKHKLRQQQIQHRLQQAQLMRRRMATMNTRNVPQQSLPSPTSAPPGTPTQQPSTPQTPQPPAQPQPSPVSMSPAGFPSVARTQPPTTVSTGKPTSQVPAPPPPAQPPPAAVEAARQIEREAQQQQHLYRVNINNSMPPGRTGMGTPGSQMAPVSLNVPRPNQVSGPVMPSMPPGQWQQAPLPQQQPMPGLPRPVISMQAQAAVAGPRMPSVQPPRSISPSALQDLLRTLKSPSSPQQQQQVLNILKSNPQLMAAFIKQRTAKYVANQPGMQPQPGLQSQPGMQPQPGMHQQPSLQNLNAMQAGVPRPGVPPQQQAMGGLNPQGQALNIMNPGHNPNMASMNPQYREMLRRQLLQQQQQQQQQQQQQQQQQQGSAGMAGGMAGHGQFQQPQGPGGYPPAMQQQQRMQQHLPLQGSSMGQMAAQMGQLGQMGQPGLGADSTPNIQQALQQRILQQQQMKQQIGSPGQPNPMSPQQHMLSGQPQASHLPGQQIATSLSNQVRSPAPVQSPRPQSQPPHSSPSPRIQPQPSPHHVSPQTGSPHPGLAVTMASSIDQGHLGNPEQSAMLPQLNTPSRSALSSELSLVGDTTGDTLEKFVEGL
Description: (§1) To gain mechanistic insight into SAGE1 function in tumorigenesis, we performed a proteomic analysis of the endogenous SAGE1 complex pulled down in HuTu 80 cells by an anti-SAGE1 antibody. The complex was resolved by SDS-PAGE, visualized by silver staining, and subjected to MS analysis (FIG. 6A and FIGS. 14A-14D). A number of proteins previously linked to transcriptional regulation were reproducibly identified as high-confidence SAGE1 interactors, including CBP (CRBP-binding protein), TLE (Groucho/Transducin-Like Enhancer of Split) proteins, INTS3 (a component of the Integrator complex) and INTS3-binding partners NABP (Nucleic Acid Binding Protein) and INIP (INTS3 and NABP interacting protein) (FIG. 6B). […] The interactions between SAGE1 and these proteins were further confirmed by co-immunoprecipitation (co-IP) analysis (FIG. 6C and FIG. 6D).
(§2) For IP, 1×10^7 cells were lysed in lysis buffer (20 mM Tris-HCl, 150 mM NaCl, 10% Glycerol, 0.5% TritonX-100, 1 mM EDTA, 1 mM EGTA, pH7.4) supplemented with protease inhibitor cocktail (Sigma-Aldrich, #B14001), incubated in 4° C. for 10 min and sonicated by Bioruptor Plus (Diagenode) (5-10% amplitude/power, ON 5 sec-OFF 5 sec) for 1 min. After centrifugation (14,000 rpm, 15 min, 4° C., 1 mg of supernatants were incubated with 5 μg of rabbit anti-SAGE1 polyclonal antibody (Novus Biologicals, #NBP1-84355, or Abcam, #ab233388) and rabbit anti- […]

[4] = target: the molecule itself; assay: homodimerisation of two INTS3CTD protomers; crystal structure (2.3 Å) and calibrated size-exclusion chromatography
[5] = target: B4; assay: purification of the complex, size-exclusion chromatography (FIG. 8B)
[6] = target: B3; assay: IP of the endogenous SAGE1 complex with anti-SAGE1 antibody (HuTu 80 and other SAGE1-expressing cancer cell lines), MS
Description: as §1, §2

B1: mutant SAGE1I3BD (other)
chain: AMAKKINDDIKYQLAKEVRRAGANYERIFILLEEVQGSMKVKRQFVEFTIKEAAAAAKVVLIQQLEKALKEIDSHCHLRKVKHMRKR
notes: also called mutant SAGE1I3BD (alanine substitutions of six key interface residues)
[1]
  binding result: no binding

B2: His-SAGE1-Flag (WT SAGE1) (other, not shown: small tags and cut ends)
chain: MQASPLQTSQPTPPEELHAAAYVFTNDGQQMRSDEVNLVATGHQSKKKHSRKSKRHSSSKRRKSMSSWLDKQEDAAVTHSICEERINNGQPVADNVLSTAPPWPDATIAHNIREERMENGQSRTDKVLSTAPPQLVHMAAAGIPSMSTRDLHSTVTHNIREERMENGQPQPDNVLSTGPTGLINMAATPIPAMSARDLYATVTHNVCEQKMENVQPAPDNVLLTLRPRRINMTDTGISPMSTRDPYATITYNVPEEKMEKGQPQPDNILSTASTGLINVAGAGTPAISTNGLYSTVPHNVCEEKMENDQPQPNNVLSTVQPVIIYLTATGIPGMNTRDQYATITHNVCEERVVNNQPLPSNALSTVLPGLAYLATADMPAMSTRDQHATIIHNLREEKKDNSQPTPDNVLSAVTPELINLAGAGIPPMSTRDQYATVNHHVHEARMENGQRKQDNVLSNVLSGLINMAGASIPAMSSRDLYATITHSVREEKMESGKPQTDKVISNDAPQLGHMAAGGIPSMSTKDLYATVTQNVHEERMENNQPQPSYDLSTVLPGLTYLTVAGIPAMSTRDQYATVTHNVHEEKIKNGQAASDNVFSTVPPAFINMAATGVSSMSTRDQYAAVTHNIREEKINNSQPAPGNILSTAPPWLRHMAAAGISSTITRDLYVTATHSVHEEKMTNGQQAPDNSLSTVPPGCINLSGAGISCRSTRDLYATVIHDIQEEEMENDQTPPDGFLSNSDSPELINMTGHCMPPNALDSFSHDFTSLSKDELLYKPDSNEFAVGTKNYSVSAGDPPVTVMSLVETVPNTPQISPAMAKKINDDIKYQLMKEVRRFGQNYERIFILLEEVQGSMKVKRQFVEFTIKEAARFKKVVLIQQLEKALKEIDSHCHLRKVKHMRKR
notes: also called wild type SAGE1
His-INTS3-Strep
  binding result: binds

## B3
[2]
  binding result: binds
[3]
  binding result: binds

## B4
[4]
  binding result: binds

B5: INTS6I3BD (INTS3-binding domain of INTS6, residues 803-887) (other)
chain: RSHEEVNTELKAQIMKEIRKPGRKYERIFTLLKHVQGSLQTRLIFLQNVIKEASRFKKRMLIEQLENFLDEIHRRANQINHINSN
notes: It was cloned in pGEX-6P-1 and purified as the INTS3CTD-INTS6I3BD complex; also called INTS6803-887; small domain at the C-terminus of INTS6
[5]
  binding result: binds

B6: INIP (INTS3 and NABP interacting protein) (other, UniProt Q9NRY2 2-104, looked up)
chain: AANSSGQGFQNKNRVAILAELDKEKRKLLMQNQSSTNHPGASIALSRPSLNKDFRDHAEQQHIAAQQKAALQHAHAHSSGYFITQDSAFGNLILPVLPRLDPE
[6]
  binding result: binds
